The target of one data set is T1, RAR-DBD-KEK-S-EE.
T1 chain: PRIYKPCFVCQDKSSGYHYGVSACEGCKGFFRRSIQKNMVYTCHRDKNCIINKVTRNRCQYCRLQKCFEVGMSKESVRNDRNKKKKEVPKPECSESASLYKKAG
In words: ELONA; RAR alone; monomeric RAR does not bind DR5. The conditions noted are these: tags: GST, label: 5'-biotin. The protocol: (§1) Method: 96-well microtiter plates were coated with a-EE (Y) and a-MYC (Y) at 10 ng/μl in 100 mM NaHCO3/Na2CO3 (pH 9.6). Excess antibody was removed and wells were blocked using 3% BSA. The biodetectors were then captured in the well as indicated in figures followed by the addition of 50 μl/well of biotinylated-DR5 DNA sequence (BIO-DR5, 5 pmol/μl). Control for specificity is the non-consensus oligo (BIO-non consensus) and un-biotinylated DR5 (competitor) to establish signal specificity. Washes were performed at each step to assure the removal of unbound reagents. Streptavidin-HRP was incubated for 30 min at RT, and after three washes, binding was assessed using TMB substrate. Absorbance was measured at 450 nm. Samples are in duplicate.
(§2) ELISA assays were carried out by coating 500 ng of α-MYC and α-EE antibodies diluted in 100 mM bicarbonate buffer (50 ul/well, pH 9.6). Antibodies were coated for 2 h at RT in a microtiter plate (MaxiSorp, Nunc). The wells were then washed once with 200 ul of PBS buffer (pH 7.3) and incubated 0/N at 4° C. with 200 ul of blocking buffer (PBS+3% BSA). The biodetectors where then added at the concentration of 0.7 pmol/well (50 ul/well in 150 mM NaCl, 50 mM Tris pH 7.6, 10% glycerol and 1% BSA) and incubated for 1 h at RT. […]

Another data set concerns the target RXR-Grb2SH2-MYC. In words: ELONA; single reagent alone; combined RXR/RAR required for signal. The conditions noted are these: tags: GST, MYC-HIS; label: 5'-biotin.
For the next data set, the target named is T2, RAR-PLCgNSH2-HA-EE.
T2 chain: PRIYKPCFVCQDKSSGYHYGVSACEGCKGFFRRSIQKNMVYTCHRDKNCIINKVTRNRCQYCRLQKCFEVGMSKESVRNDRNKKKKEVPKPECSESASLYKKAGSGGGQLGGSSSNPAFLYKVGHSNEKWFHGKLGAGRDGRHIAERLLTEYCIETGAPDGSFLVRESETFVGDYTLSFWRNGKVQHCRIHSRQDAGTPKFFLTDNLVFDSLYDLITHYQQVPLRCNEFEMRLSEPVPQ
Described as above. The conditions noted are these: tags: GST, HA-EE-HIS; label: 5'-biotin.

Data set [1] deals with RXR-Grb2SH2-MYC + RAR-PLCgNSH2-HA-EE heterodimer. In words: ELONA; antibody- or bis-phosphopeptide-captured; peptide assay in 0.8xSSC, RT. Conditions: tags: GST, MYC-HIS (RXR), label: 5'-biotin.
The next data set deals with T3, RXR-DBD-EKE-MYC (UniProt P19793 SEQ:260-356).
T3 chain: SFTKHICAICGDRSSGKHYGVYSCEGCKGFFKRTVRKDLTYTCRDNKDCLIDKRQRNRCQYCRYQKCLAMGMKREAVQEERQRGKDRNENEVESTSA
In words: ELONA; RXR alone; monomeric RXR does not bind DR5. Conditions: tags: GST, label: 5'-biotin. The method, then: as §1, §2

Data set [2] addresses T4, RXR-DBD-EKE-MYC + RAR-DBD-KEK-S-EE heterodimer (UniProt P19793; SEQ:260-356,SEQ:260-363).
T4 chain 1: T3 chain
T4 chain 2: T1 chain
In words: ELONA; antibody-captured detectors, streptavidin-HRP readout, RT. The conditions noted are these: tags: GST, label: 5'-biotin. The protocol: as §1, §2

The source of these data is US20130171644, “COINCIDENCE DETECTION” (KING'S COLLEGE LONDON, published 2013).

B1: BIO-DR5 (dsDNA)
DNA 1: TGGTATCTAGTTATTGCTCAGCGTGCCAGGTCACCGAAAGGTCAGAG
DNA 2: CTCTGACCTTTCGGTGACCTGGCACGCTGAGCAATAACTAGATACCA
B1: the binding result was “no binding” in the data set with RAR-DBD-KEK-S-EE; “no binding” with RXR-Grb2SH2-MYC; “no binding” in the data set with RAR-PLCgNSH2-HA-EE; “binds” in data set [1]; “no binding” with RXR-DBD-EKE-MYC; “binds” in data set [2].
